Experimental findings from patent US20220056111A1 (YUROGEN BIOSYSTEMS, published 2022) are described below.

The target of experiment [1] is T1, HcoV-OC43 S protein (HcoV-OC43, UniProt P36334 14-1297).
T1 sequence: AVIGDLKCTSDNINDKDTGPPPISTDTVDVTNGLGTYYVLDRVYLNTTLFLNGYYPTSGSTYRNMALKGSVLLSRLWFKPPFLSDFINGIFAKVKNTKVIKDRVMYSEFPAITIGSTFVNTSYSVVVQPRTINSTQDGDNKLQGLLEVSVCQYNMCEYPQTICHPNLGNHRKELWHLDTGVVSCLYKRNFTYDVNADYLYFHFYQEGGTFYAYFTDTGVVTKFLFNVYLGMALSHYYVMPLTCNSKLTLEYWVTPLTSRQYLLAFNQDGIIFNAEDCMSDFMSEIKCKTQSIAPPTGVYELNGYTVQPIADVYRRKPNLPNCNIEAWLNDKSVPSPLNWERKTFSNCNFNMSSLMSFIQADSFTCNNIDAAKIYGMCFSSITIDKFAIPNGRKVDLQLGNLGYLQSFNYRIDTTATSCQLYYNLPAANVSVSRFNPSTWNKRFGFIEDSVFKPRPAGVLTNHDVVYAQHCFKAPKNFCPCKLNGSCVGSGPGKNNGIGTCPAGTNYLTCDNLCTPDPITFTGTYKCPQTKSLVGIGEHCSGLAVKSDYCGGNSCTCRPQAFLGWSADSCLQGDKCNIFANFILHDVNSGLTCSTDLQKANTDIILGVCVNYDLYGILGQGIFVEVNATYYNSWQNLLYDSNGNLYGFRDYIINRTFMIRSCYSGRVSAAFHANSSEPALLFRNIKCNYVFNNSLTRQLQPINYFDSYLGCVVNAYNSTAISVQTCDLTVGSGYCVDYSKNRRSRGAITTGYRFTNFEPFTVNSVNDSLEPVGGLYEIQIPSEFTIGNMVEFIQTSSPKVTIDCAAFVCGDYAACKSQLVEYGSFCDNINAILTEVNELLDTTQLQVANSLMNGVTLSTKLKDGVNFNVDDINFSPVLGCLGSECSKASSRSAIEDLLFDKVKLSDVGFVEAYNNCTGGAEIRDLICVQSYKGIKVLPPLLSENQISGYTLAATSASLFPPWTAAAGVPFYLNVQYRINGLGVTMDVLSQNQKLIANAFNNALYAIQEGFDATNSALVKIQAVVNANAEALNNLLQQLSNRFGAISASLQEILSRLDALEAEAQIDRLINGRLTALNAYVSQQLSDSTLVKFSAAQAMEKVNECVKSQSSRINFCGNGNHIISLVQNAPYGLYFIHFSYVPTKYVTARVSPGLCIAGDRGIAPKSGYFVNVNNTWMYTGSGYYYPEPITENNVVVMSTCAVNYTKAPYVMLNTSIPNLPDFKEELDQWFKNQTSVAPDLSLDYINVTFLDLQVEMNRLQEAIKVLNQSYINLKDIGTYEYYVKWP
Nature of the experiment: direct ELISA, OD450. A general note: ELISA stands for enzyme-linked immunosorbent assay.

Experiment [2] concerns the target T2, HcoV-229E S protein (HcoV-229E, UniProt P15423 16-1115).
T2 sequence: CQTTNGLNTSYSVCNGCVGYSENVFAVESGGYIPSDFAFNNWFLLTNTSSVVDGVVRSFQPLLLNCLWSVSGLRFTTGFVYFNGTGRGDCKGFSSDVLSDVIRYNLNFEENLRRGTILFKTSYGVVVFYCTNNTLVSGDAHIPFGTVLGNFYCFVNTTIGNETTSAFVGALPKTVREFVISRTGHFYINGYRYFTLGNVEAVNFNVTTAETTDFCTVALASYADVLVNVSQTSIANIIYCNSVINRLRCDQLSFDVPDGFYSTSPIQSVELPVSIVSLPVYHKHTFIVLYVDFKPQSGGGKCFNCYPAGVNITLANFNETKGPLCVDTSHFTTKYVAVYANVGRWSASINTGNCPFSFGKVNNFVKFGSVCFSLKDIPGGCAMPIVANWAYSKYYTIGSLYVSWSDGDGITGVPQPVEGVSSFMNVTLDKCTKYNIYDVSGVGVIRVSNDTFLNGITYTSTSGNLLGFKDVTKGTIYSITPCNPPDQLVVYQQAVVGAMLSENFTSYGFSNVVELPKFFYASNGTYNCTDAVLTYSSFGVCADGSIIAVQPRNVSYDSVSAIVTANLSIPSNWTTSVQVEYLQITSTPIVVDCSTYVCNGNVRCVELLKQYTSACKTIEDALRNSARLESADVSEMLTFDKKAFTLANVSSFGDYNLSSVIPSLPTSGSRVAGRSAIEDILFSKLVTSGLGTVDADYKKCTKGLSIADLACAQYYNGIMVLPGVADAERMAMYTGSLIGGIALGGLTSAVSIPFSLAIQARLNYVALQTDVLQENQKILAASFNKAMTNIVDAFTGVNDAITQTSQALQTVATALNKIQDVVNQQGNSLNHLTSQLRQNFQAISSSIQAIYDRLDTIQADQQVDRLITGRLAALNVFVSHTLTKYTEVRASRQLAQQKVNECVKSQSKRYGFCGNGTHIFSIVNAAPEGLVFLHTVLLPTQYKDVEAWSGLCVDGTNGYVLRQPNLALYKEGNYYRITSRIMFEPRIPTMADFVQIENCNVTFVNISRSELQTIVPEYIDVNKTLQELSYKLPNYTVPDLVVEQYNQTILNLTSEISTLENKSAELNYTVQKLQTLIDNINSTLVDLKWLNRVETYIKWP
Nature of the experiment: direct ELISA, OD450.

In experiment [3] the target is T3, HcoV-NL63 S protein (HcoV-NL63, UniProt Q6Q1S2 19-1296).
T3 construct: also called hCov-NL63 S1
T3 sequence: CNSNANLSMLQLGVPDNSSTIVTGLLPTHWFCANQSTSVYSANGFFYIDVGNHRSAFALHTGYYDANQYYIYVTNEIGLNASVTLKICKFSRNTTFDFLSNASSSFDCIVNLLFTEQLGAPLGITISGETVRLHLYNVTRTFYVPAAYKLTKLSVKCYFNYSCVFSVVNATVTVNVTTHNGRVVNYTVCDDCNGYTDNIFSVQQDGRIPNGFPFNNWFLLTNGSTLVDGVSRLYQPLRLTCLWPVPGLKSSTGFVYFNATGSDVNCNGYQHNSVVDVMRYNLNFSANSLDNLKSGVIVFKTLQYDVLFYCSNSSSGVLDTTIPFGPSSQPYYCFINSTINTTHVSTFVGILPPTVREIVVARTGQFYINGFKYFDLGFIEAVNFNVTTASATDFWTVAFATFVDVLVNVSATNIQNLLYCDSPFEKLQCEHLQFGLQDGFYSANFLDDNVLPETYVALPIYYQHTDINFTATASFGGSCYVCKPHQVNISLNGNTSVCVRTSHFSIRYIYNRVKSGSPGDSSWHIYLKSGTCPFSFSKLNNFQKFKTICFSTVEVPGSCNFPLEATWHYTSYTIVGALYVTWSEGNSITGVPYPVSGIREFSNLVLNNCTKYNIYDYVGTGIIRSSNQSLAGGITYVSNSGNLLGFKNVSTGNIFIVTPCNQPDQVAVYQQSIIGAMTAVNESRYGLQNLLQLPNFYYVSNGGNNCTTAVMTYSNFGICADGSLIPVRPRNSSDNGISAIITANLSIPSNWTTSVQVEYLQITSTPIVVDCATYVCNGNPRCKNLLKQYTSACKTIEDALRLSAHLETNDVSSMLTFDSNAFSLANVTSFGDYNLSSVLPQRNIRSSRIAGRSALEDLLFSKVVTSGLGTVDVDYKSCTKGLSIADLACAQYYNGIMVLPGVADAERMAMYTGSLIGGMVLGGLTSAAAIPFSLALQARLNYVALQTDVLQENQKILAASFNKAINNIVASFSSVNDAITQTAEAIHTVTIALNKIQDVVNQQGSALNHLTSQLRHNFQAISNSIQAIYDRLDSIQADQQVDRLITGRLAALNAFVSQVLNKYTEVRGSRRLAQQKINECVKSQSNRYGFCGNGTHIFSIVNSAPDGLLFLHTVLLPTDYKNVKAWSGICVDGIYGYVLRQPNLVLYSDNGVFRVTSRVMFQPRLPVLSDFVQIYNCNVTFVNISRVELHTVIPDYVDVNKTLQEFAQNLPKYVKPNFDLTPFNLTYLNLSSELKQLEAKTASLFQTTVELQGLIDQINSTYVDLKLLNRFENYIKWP
Nature of the experiment: direct ELISA, OD450.

Experiment [4] concerns the target SARS-CoV-2 Spike S1 protein (SARS-CoV-2, UniProt P0DTC2 16-685).
Experiment [5] deals with RBD (receptor binding domain) of the SARS-CoV-2 S1 (SARS-CoV-2, UniProt P0DTC2 319-541).

What is called Kd is the constant that tells how readily two partners part at equilibrium. A low value points to a tighter complex. What is called koff is the first-order rate constant of dissociation. Low readings indicate slow dissociation, high ones fast dissociation. What is called kon is the second-order rate constant of association. A high value points to faster complex formation. What is called EC50 (read off the curve) is the concentration needed to bring the measured effect to its halfway point. A high value points to lower potency in that assay.

Bounds are passed on as bounds.

B1: rabbit monoclonal antibody 5E1 against the SARS-CoV-2 S1 (antibody, V domains shown)
VH: QSVEESGGRLVTPGTPLTLTCTVSGIDLSSYAMGWVRQAPGKGLEYIGIIYISGLTYYASWAKGRFTISKTSTTVDLKIPSPTTEDTATYFCARGEYNSHSHYLLWGPGTLVTVSS
VL: AYDMTQTPSSVSEPVGGTVSIKCQASQNIYSNLAWYQQKPGQRPKLLIYDASQLASGVPSRFKGSGSGTEYTLTISGVECADAATYYCQQGFESSDIFNVFGGGTEVVVKG
With B1, the binding result in experiment [1] is recorded as “no binding”. For the same molecule, the binding result in experiment [2] is “no binding”. Further, the binding result in experiment [3] is “no binding”. In addition, in experiment [4], the dissociation constant (Kd) is no more than 0.138 nM, the koff is no more than 1e-05 s⁻¹ and the kon amounted to 72300 M⁻¹ s⁻¹.

B2: rabbit monoclonal antibody 9H1 against the SARS-CoV-2 S1 (antibody, V domains shown)
VH: QSVEESGGRLVTPGTPLTLTCTVSGFSLSRYAMSWVRQAPGKGLEWIGIIVDSGHTAYASWAKGRFTISRTSTTVDLKMTSLTTEDTATYFCARETGGGAFYVFEFWGPGTVVTVSS
VL: AQVLTQTPSSVSAAVGGTVTINCQASEDIYDNLVWYQQKPGQPPKLLIYDASTLAFGVSSRFRGSGSGTHFTLTMRDVQCDDAATYYCQGEFSCSSGDCTAFGGGTEVVVKG
As for B2, the binding result in experiment [1] was “no binding”. In addition, the binding result in experiment [2] is “no binding”. Also, in experiment [3], the binding result is reported as “no binding”. For the same molecule, the “EC50 (read off the curve)” value in experiment [5] is roughly 0.02 µg/mL. In experiment [4], the dissociation constant Kd came out at 0.769 nM, the koff is 0.00025 s⁻¹ and the kon is 325000 M⁻¹ s⁻¹.
